# Experimental data reported in the DeepSol protein solubility set.
# Assay: soluble on expression in E. coli; label from the status in PepcDB or PDB records
row,Sequence,soluble on expression in E. coli
1,MQKRVKEGPFTTEWIDLYLEEAVRKGIKEVGIVDHLYRFHEAKGYYEKYVDISDSKLGRIQKEWLDQVKVVSLYDFTKAIEEAKERWGKRGVTLKLGIEADYFIGCEGELKELLALGDFDYVIGSVHFLNGWGFDNPDTKEYFEVHDLRALYDMFFKTVESAIRTELFDIIAHLDNIKVFNYRLDENEQLSYYEEIACALVETNTATEINAGLYYRYPVREMCPSPLYLQVLAKYGVPITISSDAHYPNDLGNYVQENIQTLRAHGVTQVATFTKRARVMRSLEEEVTNSK,not soluble
2,MSSTLPVINLMGPTASGKTALACELYERGHFELISVDSALIYKDMDIGTAKPTKEELALYPHHLIDIITPLEVYSAAQFVEDATQLIDQIHMKGKTPILVGGTMLYFKSLLEGLSTNLPSADAEVRAAIEKQAEQEGWQSVYDELARVDPVAGARFKVSDRQRIIRAIEVYRLTGQPITKLQAEQPKNVPYRYTFHNYALLPDRIELHKRIEQRLFKMWSIGFLNEVESLIKKYDLNDNLPSMRSVGYRQALDFLLKSDMSHNNRREMEDKALFATRQLAKRQYTWLRSLQETHYFKTYLTIKQAQEDLRNSYGLEHHHHHH,soluble
3,MAHHHHHHMLRPTRVSRLVRSGSVALTPSCWTTKPAGWYLVPSSTLPATEELRVGKCFDFLNHSAQYLFLGQVMALAEEVKCIPWLEWFYSELHFSLPPTKEAELLANYMNDQERLRCGLRNHSEGGTSSSDIAWSRELKERVQRRAEEDFCWLLTHDQRKTEKFLQETFIQWHHRADYLVTRKSREKREFREDLTLQKVIQQGQERKRRMQRRRNRDEARQEAIKSGKESEWDNFTHDVLPRELREALDRESDGMEDVRLSRAGTATGGWSRSMRSHPNFR,soluble
4,MGSDKIHHHHHHMLVENSHTPDALAEAFATVDGLMATGKFARSLSVMLPFVQTGELDAGLLDRTADCFFEMRDYENAVNVMRHVTATWPDDPSAWGKLGLMLQTKGDLLGAEQAFEEVLKRDPNSIPALTALNGIETFSVDSLYAQRLMSLSEREDLDAKHRALIHYALAQIAHGSGEAEVAFTLFQSARNEVAGPFAPAIFDEMVAEQEALFEPRPASEDASLLPKLVFIGGMPMSGTGLVDRILAQHPGVFSVGAKTALSRTHGAIRMHLAKTDRPCNYWDWMEHLSAEEIDIFRQYYLERALGGQVAGGKTIVDAHPLGCLEFGLAQFLFPEAKFVFMSRHPMDTALANIASNVLNGNALASRTEWIAQVMRTVYSSATVYASKLGDSMRLQSYEALVQNSEREIGLLLEHAGLEYNAACLTPNALCDVPQIATMLGQEELSTETQNQWLPYEEQLQGFYEQLGGERWVSAWEDFDKTLR,not soluble
5,MPVIKDAVCSLCGSLCDDITVTVEDNKITKIENACILGHSKFVGMFEHDRIETPMVRKDGELVPVSYEEAIEAAAKILVNSRRTLSYGWCSTSCEAVSGAIQLAEETGSIIDSTANVCHGPTALAAQEKGSPSASLGEIKNRADVIVFWGCNPVHAHPRHMSRYSSFSKGFFTEKGRKGRKMVVIDVRKTDTAKIADKYVEIEQGSDLLLVTALRSIVNGHEDVVPETVAGVPKAEVLELAETLKNAKFTCIFFGMGVTQSRSKYKNGDAVSSLISDLNQHTKAVMIGMRGHYNVTGFGQVATWETGFPMAIDFSRGYPYYNPGETGANDLLVREEPDAAIIAAADAGAHFPQKAVRHLARIPVIQIDPYANPTTEIADVVIPAAVVGIEAEGTAYRMDAISLRMKKLIDTEFKTDEEIVKDLTAKVREMKRGV,not soluble
6,MRSSNNRHEGEEAMNRTQQWMEDLQKNISDLIARSPAADVERNVRAMMTQTFARLDLITREEFEVQVDLLARARTRVDQLSAQVQQLEARLAALEAGKPQA,not soluble
7,MLTERQLLIFRAIIDHFTWTIQPVGSKNLLKEKSLPYSSATIRNEMGVLEEYGFIEKTHSSSGRVPSEKGYRFYVDYLLQPKKLDKSDRQMIRSFFSENYYEMEGLIQNSALMLSDLTNYTSILLGPEATKNHLSGFRFVPINNFQAMLILITDQGHVDNHLVTIPEGTTLSDIERMVNILNERLVGLSLDDLKVQIPMEVKELLGKHVRNYESFMHVFSDSFAQASQQKVYFGGKTNILNQPEFHDINKVREMLHLMEEEQDVYELFRDIPDGLQVKIGRENNNSLMEDCSIITATYNIAGERVGGIVLLGPTRMEYSRMMGLVDVMSRDLTDVLTKLYRDNQN,not soluble
8,MENIVNRTYTRIGQLLKQDISQGIYSIGDKLPTEREISEKFGVSRTIVREAMVMLEVEKLVEVKKGSGVYVVRTPESIHMEHSDLPDVGPFELLQARQLLESSIAEFAALQATKKDILNLKQILNREKELLTQNQDDYSADKDFHLALAEITQNDVLVKLQEQLWQYRFNSAMWAQLHSRILQNDYHHLWIEDHQTILSAIQKKNANEARKAMWQHLENVKVKLFELSDVEDPHFDGYLFNTNPVVVGI,not soluble
9,MTDEQRSGSRRRGGALGGGRGGNSQNSGRKRSSNSPADSASSSQKTSRNPSQNRPPMNIVPQKVTILKRNQDSQPTSPINRNAPPGPLVAAVQPLMAVELGDSGASLKGWNSNPTTPEKTTINVAGRQAEANKKQTQEYYFSKNAGSAVSAQTFQETVQYPMSSFPLEKNVPIQIDNNFTLLITPTTSKCNGLFIKVKLQHGDDNITTGALLKLDADEKTIRKSCRETIENLLKAKSSSDRFPFSKCSEGFLTSCLIKKLVDRLEAFPEAIYYCEKCDYHINTIGHAKAHLESSTHFDDVKRQEQREHLLKIIPPPTEAHLESVEKVLEGTLKSYQQVRQNGIEIGETIIYYLSTTVFPSIGLQDVILRPFGSVTYDVTLPDSDYNVAYTMSIPEGTPIFALLEQVRKKIADDGHPADHSMEMGTPSTIIFTFKGVRVKLCWMSCFNHRIQLHFSELMKTYVNLREEVAQFLQLIRLWATKAGLDSKNKPRIGLPRYGFDIMAIHFLQQIGCLPVLHELFEAGPETEKIEEMSAEKTAKLQSEEAGQRRMRLMSRYEKNTEKIGTKFDLKKSWNLAELFIGFFRYYVERHRDVVIQITQLIPMSRDVSRWNKKILHVVDPFRGDNVLSIPKVSTWQPFFFNCLLTSFVSFSIPRTKNGPLIEVSFVHNKTIKPGKKFKDTPKKATVEAPIPLTQIMEEHYQEPVYEIVNDKDHLKYMKELKERLMIDGILVNERKPIDYHTDDHRECVYGRNSLLRFKRVLKPGLNGKMAASMDGLSFVTKKGKKFINRWKKANVIILSEDSSEIDEKTKAADSNVSEIAEKLEETLKISSQKNIDVAVTSMPVSTEIKPEPITKLSNEAPVKIKNVAQPQCDLIEAPQESLMNESMMESSFDETESPMKTPIVQKPVKQNATFGKSTISTVIPDKQFCSEEFFIKLNSNLKDIVSKSKSLKPSDFHYEFSTDLFCGDFEMEMKCTHCDGSHCVENCPMMEIPPIKKYQARTPEDLKDIDDMIDKYYHENILDERRLKMLDHKIDELQSFLRKNYREDVTLTTFGSVMTGLSVNCSDIDICLRFGDGDVPPKDLTAKEVIQKTESVLRKCHLVKRVQAIVTAKVPIVKFQVKLSNGAIIDVDISYYNILAIYNTALLKEYSLWTPDKRFAKLALFVKTWAKNCEIGDASRGSLSSYCHVIMLISYLQNCDPPVLPRLQEDFRSDNRERRLVDNWDTSFAQVETSLLQRWPKNKESCAQLLIGYFDYYSRFDFRNFVVQCRREMILSKMEKEWPRPLCVEDPFDLSHNLSSGVNKKMFVFIMKVFINSRAVFMSEKPPMNRDHTFLSSYQHQLLRKCNQGSAPTDRQCHQCHRIGHFVESCPQRALAKEARKRFGSNSTNSSYRSNDSGRGFKNGEEGGDRLTYHKRTYYHRSYNK,not soluble
10,MKFIDEYRDPARARALLDRIRQVARHDWTIMEICGGQTHSILRNGIDQLLPPNVQLVHGPGCPVCVTPLETIERALAIAARPNTILTSFGDMLRVPGNSKDLFMARSEGADVRVVFSPLEALQIARDNPSKEVVFLGVGFETTAPANAMAVHQAAREGLTNFSELVSQVMVPPAMRAMLSSPGNRVQGFLAAGHVCAIMGYEEYEPVAAEFGVPIVPAGFEPVDLLDAILKTVELLEAGRSGVVNAYGRVVSREGNPEARRVMQEVFEVADRPWRGIGVIPASGLVLRPEYKRFDAEKRFDVGHIAPQESPLCRSGEVLQGHLKPSDCPAFGKECTPQTPFGATMVSSEGACAAYYRYHRNSNT,soluble
